From patent US20240287138A1 (Merck Sharp & Dohme, published 2024)
Numbered stars: 1 amine (or outer) side, 2 acyl side, 3 side chain; on linkers, the order of the positions; unused ones are H or OH. Bridge positions count the residues as written; N and C are the ends. Square brackets hold non-standard residues; d marks the D form. Primed or numbered codes have the meaning given here. * marks the point of attachment. RbOHPhe4CONH2 = (2S,3R)-2-amino-3-(4-carbamoylphenyl)-3-hydroxypropanoic acid, NC(=O)c1ccc([C@@H](O[*:3])[C@H](N[*:1])C(=O)[*:2])cc1; bhcLeu = (1R,3S)-3-aminocyclopentane-1-carboxylic acid, O=C([C@@H]1CC[C@H](N[*:1])C1)[*:2]; Trp(βS-Me,7-OMe) = COc1cccc2c([C@H](C)[C@H](N)C(=O)O)c[nH]c12; Phe(2-F,4-COOH) = N[C@@H](Cc1ccc(C(=O)O)cc1F)C(=O)O; dPro(trans-4-NMe2) = CN(C)[C@@H]1CN[C@@H](C(=O)O)C1; Trp(7-CN) = N#Cc1cccc2c(C[C@H](N)C(=O)O)c[nH]c12; Trp(7-Cl) = N[C@@H](Cc1c[nH]c2c(Cl)cccc12)C(=O)O; Biotin = O=C1N[C@H]2[C@H](CS[C@H]2CCCCC(=O)*)N1; Phe(4-CONH2) = NC(=O)c1ccc(C[C@H](N)C(=O)O)cc1; Phe(4-COOH) = N[C@@H](Cc1ccc(C(=O)O)cc1)C(=O)O; Trp(7-aza) = N[C@@H](Cc1c[nH]c2ncccc12)C(=O)O; Pip(4-aza) = O=C(O)[C@@H]1CNCCN1; 4Pal = N[C@@H](Cc1ccncc1)C(=O)O; NMeE = CN[C@@H](CCC(=O)O)C(=O)O; dHyp = O=C(O)[C@H]1C[C@H](O)CN1; d(αMeP) = C[C@]1(C(=O)O)CCCN1; 40Me3Pal = not defined here; Pipt5OH = not defined here; αMeS = C[C@](N)(CO)C(=O)O; Nle = CCCC[C@H](N)C(=O)O; Pip2c = not defined here; cAcBu = not defined here; Ahp′ = not defined here; MO2 = not defined here; Qdm = not defined here; AEA = NCCOCC(=O)O; Sar = CNCC(=O)O

T1: TNFR1 on THP-1 Lucia NF-kB reporter cells (UniProt P19438 30-455, limits assumed)
T1 sequence (looked up): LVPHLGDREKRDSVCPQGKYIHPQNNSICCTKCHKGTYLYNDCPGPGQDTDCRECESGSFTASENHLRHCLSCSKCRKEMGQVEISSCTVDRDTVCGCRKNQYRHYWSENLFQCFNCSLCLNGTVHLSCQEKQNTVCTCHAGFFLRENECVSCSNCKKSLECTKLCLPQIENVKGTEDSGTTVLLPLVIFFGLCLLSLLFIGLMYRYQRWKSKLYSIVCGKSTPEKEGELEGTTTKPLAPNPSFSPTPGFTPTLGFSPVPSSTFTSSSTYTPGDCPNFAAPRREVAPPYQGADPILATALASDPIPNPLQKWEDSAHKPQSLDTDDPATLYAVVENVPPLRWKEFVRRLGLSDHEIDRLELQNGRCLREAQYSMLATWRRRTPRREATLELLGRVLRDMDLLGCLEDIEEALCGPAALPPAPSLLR

T2: TNFR1 on THP-1 Lucia NF-κB reporter cells (UniProt P19438 30-455, limits assumed)
T2 sequence (looked up): T1 sequence (looked up)

T3: C-terminally 6His-tagged human soluble TNFR1 (sTNFR1, residues 1-211), purified from a Sf21 baculovirus … (human)
T3 construct: ID NO; The text says 'residues 1-211'; also called sTNFR1-6His; ID NO; P1
T3 chain: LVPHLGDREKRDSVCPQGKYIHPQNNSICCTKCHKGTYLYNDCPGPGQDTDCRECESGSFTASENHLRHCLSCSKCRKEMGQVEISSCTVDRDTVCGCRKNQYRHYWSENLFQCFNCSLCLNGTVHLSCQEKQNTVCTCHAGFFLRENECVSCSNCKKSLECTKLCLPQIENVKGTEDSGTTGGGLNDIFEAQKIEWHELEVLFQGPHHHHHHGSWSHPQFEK

B1: SEQ ID NO. 75 (peptide)
peptide: {CH2CO}-[Nle][4Pal][Pip2c]W[NMeE][Qdm][4Pal][Trp(7-Cl)][αMeS][Phe(4-COOH)]Y[Sar][Trp(βS-Me,7-OMe)]C-NH2
modifications: thioether N-14 (inferred); reading uncertain; also: printed as cyclo(ClAc-Nle-4Pal-Pip2c-W-NMeE-Qdm-4Pal-Trp7Cl-aMeS-Phe4COOH-Y-Sar-SbMeW7OMe-C)-NH2
B2: SEQ ID NO. 76 (peptide)
peptide: {CH2CO}-[Nle][4Pal][Pip2c]W[d(αMeP)]N[4Pal][Trp(7-Cl)][αMeS][Phe(4-COOH)]Y[Sar][Trp(βS-Me,7-OMe)]C-NH2
modifications: thioether N-14 (inferred); reading uncertain; also: printed as cyclo(ClAc-Nle-4Pal-Pip2c-W-daMeP-N-4Pal-Trp7Cl-aMeS-Phe4COOH-Y-Sar-SbMeW7OMe-C)-NH2
B3: SEQ ID NO. 7 (peptide)
peptide: cyclo([bhcLeu][Nle][4Pal][Pip2c]W[NMeE]N[4Pal][Trp(7-Cl)][αMeS][Phe(2-F,4-COOH)]Y[Sar][Trp(βS-Me,7-OMe)])
modifications: reading uncertain; also: printed as cyclo(bhcLeu-Nle-4Pal-Pip2c-W-NMeE-N-4Pal-Trp7Cl-aMeS-Phe2F4COOH-Y-Sar-SbMeW7OMe)
B4: SEQ ID NO. 100 (peptide)
peptide: cyclo([bhcLeu][Nle][4Pal][Pip2c]W[NMeE]N[40Me3Pal][Trp(7-Cl)][αMeS][Phe(4-COOH)]Y[Sar][Trp(βS-Me,7-OMe)])
modifications: reading uncertain; also: printed as cyclo(bhcLeu-Nle-4Pal-Pip2c-W-NMeE-N-40Me3Pal-Trp7Cl-aMeS-Phe4COOH-Y-Sar-SbMeW7OMe)
B5: SEQ ID NO. 65 (peptide)
peptide: {CH2CO}-[Nle][PyrimAla][Pip2c][Trp(7-aza)][NMeE]N[4Pal][Trp(7-Cl)][αMeS][Phe(4-COOH)]Y[Sar][Trp(βS-Me,7-OMe)]C-NH2
modifications: thioether N-14; reading uncertain; also: printed as cyclo(ClAc-Nle-PyrimAla-Pip2c-Trp7az-NMeE-N-4Pal-Trp7Cl-aMeS-Phe4COOH-Y-Sar-SbMeW7OMe-C)-NH2
B6: SEQ ID NO. 88 (peptide)
peptide: cyclo([bhcLeu][Nle][4Pal][Pipt5OH]W[dHyp]N[AlaPyrim4COOH][Trp(7-Cl)][αMeS][Phe(4-CONH2)][Phe(4-COOH)][Sar][Trp(βS-Me,7-OMe)])
modifications: reading uncertain; also: printed as cyclo(bhcLeu-Nle-4Pal-Pipt5OH-W-dProt4OH-N-AlaPyrim4COOH-Trp7Cl-aMeS-Phe4CONH2-Phe4COOH-Sar-SbMeW7OMe)
B7: SEQ ID NO. 64 (peptide)
peptide: cyclo([bhcLeu][Nle][4Pal][Pip2c]W[NMeE][MO2][4Pal][Trp(7-Cl)][αMeS][Phe(4-COOH)]Y[Sar][Trp(βS-Me,7-OMe)])
modifications: reading uncertain; also: printed as cyclo(bhcLeu-Nle-4Pal-Pip2c-W-NMeE-MO2-4Pal-Trp7Cl-aMeS-Phe4COOH-Y-Sar-SbMeW7OMe)
B8: SEQ ID NO. 78 (peptide)
peptide: cyclo([bhcLeu][Nle][4Pal][Pipt5OH]W[dHyp][RbOHAsn][4Pal][Trp(7-CN)][αMeS][Phe(4-CONH2)][Phe(4-COOH)][Sar][Trp(βS-Me,7-OMe)])
modifications: reading uncertain; also: printed as cyclo(bhcLeu-Nle-4Pal-Pipt5OH-W-dProt4OH-RbOHAsn-4Pal-Trp7CN-aMeS-Phe4CONH2-Phe4COOH-Sar-SbMeW7OMe)
B9: SEQ ID NO. 98 (peptide)
peptide: cyclo([bhcLeu][Ahp′][SbMe4Pal]HW[dHyp]N[Phe(4-COOH)][Trp(7-CN)][αMeS][Phe(4-CONH2)][Phe(4-CONH2)][Sar][Trp(βS-Me,7-OMe)])
modifications: reading uncertain; also: printed as cyclo(bhcLeu-Ahp-SbMe4Pal-H-W-dProt4OH-N-Phe4COOH-Trp7CN-aMeS-Phe4CONH2-Phe4CONH2-Sar-SbMeW7OMe)
B10: SEQ ID NO. 69 (peptide)
peptide: cyclo([cAcBu][Nle][4Pal][Pip2c]W[NMeE]N[4Pal][Trp(7-Cl)][αMeS][Phe(4-COOH)]Y[Sar][Trp(βS-Me,7-OMe)])
modifications: reading uncertain; also: printed as cyclo(cAcBu-Nle-4Pal-Pip2c-W-NMeE-N-4Pal-Trp7Cl-aMeS-Phe4COOH-Y-Sar-SbMeW7OMe)
B11: SEQ ID NO. 287 (Example No. 287) macrocyclic peptide (peptide)
peptide: cyclo([bhcLeu][Nle][4Pal][Pip(4-aza)][Trp(7-aza)][dPro(trans-4-NMe2)]N[Phe(4-COOH)][Trp(7-CN)][αMeS][Phe(4-COOH)][RbOHPhe4CONH2][Sar][Trp(βS-Me,7-OMe)])
SMILES: CCCC[C@@H]1NC(=O)[C@@H]2CC[C@@H](C2)NC(=O)[C@H]([C@@H](C)c2c[nH]c3c(OC)cccc23)NC(=O)CN(C)C(=O)[C@H]([C@H](O)c2ccc(C(N)=O)cc2)NC(=O)[C@H](Cc2ccc(C(=O)O)cc2)NC(=O)[C@](C)(CO)NC(=O)[C@H](Cc2c[nH]c3c(C#N)cccc23)NC(=O)[C@H](Cc2ccc(C(=O)O)cc2)NC(=O)[C@H](CC(N)=O)NC(=O)[C@H]2C[C@H](N(C)C)CN2C(=O)[C@H](Cc2c[nH]c3ncccc23)NC(=O)[C@@H]2CNCCN2C(=O)[C@H](Cc2ccncc2)NC1=O
B12: biotinylated peptide SEQ ID NO. 1 (TR-FRET probe): cyclo(ClAc-F-Y-S-W-Sar-N-Y-W-S-Y-Y-Sar-W-C)-G-Aea-K(N-Biotin)-NH2 (peptide)
peptide: {CH2CO}-FYSW[Sar]NYWSYY[Sar]WCG[AEA]K(Biotin)-NH2
modifications: thioether N-14
SMILES: CN1CC(=O)N[C@@H](CC(N)=O)C(=O)N[C@@H](Cc2ccc(O)cc2)C(=O)N[C@@H](Cc2c[nH]c3ccccc23)C(=O)N[C@@H](CO)C(=O)N[C@@H](Cc2ccc(O)cc2)C(=O)N[C@@H](Cc2ccc(O)cc2)C(=O)N(C)CC(=O)N[C@@H](Cc2c[nH]c3ccccc23)C(=O)N[C@H](C(=O)NCC(=O)NCCOCC(=O)N[C@@H](CCCCNC(=O)CCCC[C@@H]2SC[C@@H]3NC(=O)N[C@@H]32)C(N)=O)CSCC(=O)N[C@@H](Cc2ccccc2)C(=O)N[C@@H](Cc2ccc(O)cc2)C(=O)N[C@@H](CO)C(=O)N[C@@H](Cc2c[nH]c3ccccc23)C1=O
notes: Synthetic thioether macrocycle made by Procedure A, with a Gly-Aea spacer and Lys(biotin) on the carboxy group of the C-terminal cysteine; also called biotin-tagged B0372 peptide

Target: T1, TNFR1 on THP-1 Lucia NF-kB reporter …
Test: cell-based or functional assay

Row | Binder | THP-1 IC50 [nM]
1 | B1 | 6.1
2 | B2 | 4.7
3 | B3 | 1.6
4 | B4 | 1.3
5 | B5 | 4
6 | B6 | 1.9
7 | B7 | 1.1
8 | B8 | 0.7
9 | B9 | 1.5
10 | {CH2CO}-[Nle][4Pal][Pipc4OH]W[NMeE]N[4Pal][Trp(7-Cl)][αMeS][Phe(4-COOH)]Y[Sar][Trp(βS-Me,7-OMe)]C-NH2 (thioether N-14 (inferred)) [SEQ ID NO. 71] | 2.8
11 | B10 | 1.6

Target: T2, TNFR1 on THP-1 Lucia NF-κB reporter …
Test: cell-based or functional assay

Row | Binder | THP-1 IC50 [nM]
12 | B11 | 1.7

Target: T3, C-terminally 6His-tagged human soluble …
Test: TR-FRET binding assay, probe peptide with sTNFR1-6His (0.25 nM)

Row | Binder | Kd [nM]
13 | B12 | ~100
